The values below come from publication PMC13043311, “2′-O-Methyl-guanosine RNA fragments antagonize TLR7 and TLR8 to limit autoimmunity”.

Holding throughout (settings): protein: recombinant; chain copies: 2; single-stranded
One data set has as its target T1, TLR7 P435S (Macaca mulatta, UniProt B3Y653 27-839, P435S).
T1 sequence: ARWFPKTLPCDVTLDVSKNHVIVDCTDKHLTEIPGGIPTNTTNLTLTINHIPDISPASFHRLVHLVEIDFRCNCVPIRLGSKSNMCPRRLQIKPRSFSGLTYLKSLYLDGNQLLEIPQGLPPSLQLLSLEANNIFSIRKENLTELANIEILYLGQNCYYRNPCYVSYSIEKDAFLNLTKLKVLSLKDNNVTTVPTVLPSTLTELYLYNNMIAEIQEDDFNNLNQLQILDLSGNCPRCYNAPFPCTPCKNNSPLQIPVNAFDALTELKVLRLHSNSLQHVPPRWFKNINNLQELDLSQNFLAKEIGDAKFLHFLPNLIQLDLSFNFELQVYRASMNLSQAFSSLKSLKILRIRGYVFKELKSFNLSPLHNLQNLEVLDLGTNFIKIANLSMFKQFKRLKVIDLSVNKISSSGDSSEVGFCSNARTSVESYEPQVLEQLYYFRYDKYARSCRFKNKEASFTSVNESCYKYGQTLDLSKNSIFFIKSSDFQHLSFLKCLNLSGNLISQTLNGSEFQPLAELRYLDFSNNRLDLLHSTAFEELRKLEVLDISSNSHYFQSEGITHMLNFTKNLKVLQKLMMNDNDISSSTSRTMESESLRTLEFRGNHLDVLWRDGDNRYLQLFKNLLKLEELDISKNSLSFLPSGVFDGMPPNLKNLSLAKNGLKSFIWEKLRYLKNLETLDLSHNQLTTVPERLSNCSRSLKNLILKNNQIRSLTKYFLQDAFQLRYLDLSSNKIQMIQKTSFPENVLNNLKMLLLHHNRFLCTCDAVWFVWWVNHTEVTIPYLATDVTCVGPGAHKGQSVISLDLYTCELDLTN
As to the kind of experiment: SPR; mean computed from runs 5±0.6, 6±0.7, 6±0.7; SPR with recombinant TLR7/TLR8; buffer, pH and temperature not in the material. In general terms: In SPR one partner is held on a chip, and binding of the other changes the refractive index at the surface.

Another data set deals with T2, TLR7 T406S (Macaca mulatta, UniProt B3Y653 27-839, T406S).
T2 sequence: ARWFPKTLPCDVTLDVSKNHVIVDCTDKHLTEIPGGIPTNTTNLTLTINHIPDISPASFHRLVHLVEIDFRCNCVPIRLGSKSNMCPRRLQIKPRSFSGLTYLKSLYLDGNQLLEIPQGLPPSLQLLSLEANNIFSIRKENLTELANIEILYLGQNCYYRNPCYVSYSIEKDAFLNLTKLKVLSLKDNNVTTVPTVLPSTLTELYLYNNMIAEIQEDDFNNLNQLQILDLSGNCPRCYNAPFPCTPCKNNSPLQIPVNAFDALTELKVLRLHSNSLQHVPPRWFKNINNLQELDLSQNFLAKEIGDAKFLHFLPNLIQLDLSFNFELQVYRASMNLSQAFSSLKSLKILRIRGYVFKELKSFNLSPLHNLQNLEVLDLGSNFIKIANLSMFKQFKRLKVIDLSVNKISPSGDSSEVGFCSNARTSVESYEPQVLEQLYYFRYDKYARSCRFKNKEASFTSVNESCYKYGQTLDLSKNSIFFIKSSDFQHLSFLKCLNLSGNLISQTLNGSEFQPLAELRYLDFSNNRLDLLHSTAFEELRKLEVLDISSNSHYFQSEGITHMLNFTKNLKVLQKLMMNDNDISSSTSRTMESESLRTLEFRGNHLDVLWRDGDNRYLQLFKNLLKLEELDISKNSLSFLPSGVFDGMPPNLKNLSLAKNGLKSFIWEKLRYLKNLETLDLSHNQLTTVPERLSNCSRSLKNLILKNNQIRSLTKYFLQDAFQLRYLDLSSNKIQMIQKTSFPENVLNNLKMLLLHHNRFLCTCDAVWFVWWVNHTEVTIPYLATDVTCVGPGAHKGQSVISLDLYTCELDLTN
The data set is described as follows: SPR; mean computed from runs 0.5±0.09, 0.6±0.1, 0.6±0.1; SPR with recombinant TLR7/TLR8; buffer, pH and temperature not in the material.

In another data set the target is T3, TLR7 WT (mmTLR7) (Macaca mulatta, UniProt B3Y653 27-839).
T3 sequence: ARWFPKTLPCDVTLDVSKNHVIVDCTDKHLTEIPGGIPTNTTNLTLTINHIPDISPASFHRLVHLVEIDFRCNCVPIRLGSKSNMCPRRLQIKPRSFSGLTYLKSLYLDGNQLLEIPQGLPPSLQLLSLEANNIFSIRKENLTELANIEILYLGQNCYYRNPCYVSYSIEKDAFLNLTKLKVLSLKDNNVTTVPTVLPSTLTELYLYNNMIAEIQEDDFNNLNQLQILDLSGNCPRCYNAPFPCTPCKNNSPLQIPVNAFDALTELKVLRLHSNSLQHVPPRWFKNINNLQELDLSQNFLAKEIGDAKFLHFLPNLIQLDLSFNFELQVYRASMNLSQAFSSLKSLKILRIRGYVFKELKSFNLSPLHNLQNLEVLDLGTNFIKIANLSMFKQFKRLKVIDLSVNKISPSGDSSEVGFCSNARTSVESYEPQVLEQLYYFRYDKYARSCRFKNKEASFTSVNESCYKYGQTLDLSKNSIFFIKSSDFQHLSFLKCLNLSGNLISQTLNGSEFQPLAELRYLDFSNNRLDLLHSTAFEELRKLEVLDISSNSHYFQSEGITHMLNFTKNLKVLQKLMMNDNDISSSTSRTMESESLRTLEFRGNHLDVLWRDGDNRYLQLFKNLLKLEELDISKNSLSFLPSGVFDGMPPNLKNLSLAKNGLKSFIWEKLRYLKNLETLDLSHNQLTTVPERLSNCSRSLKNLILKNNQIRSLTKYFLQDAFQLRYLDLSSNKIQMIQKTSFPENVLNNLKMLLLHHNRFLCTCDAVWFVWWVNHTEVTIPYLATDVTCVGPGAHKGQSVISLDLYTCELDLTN
The data set is described as follows: SPR; mean computed from runs 0.9±0.3, 2±0.5, 1.4±0.6; SPR with recombinant TLR7/TLR8; buffer, pH and temperature not in the material.

B1: mGrUrC PS (XNA)
RNA: GUC
modifications: 2'-OMe G1, RNA U2 C3; phosphorothioate linkages
Turning to B1, the values for the Kd with TLR7 P435S, with TLR7 T406S and in the data set with TLR7 WT (mmTLR7) were 5670 nM, 570 nM and 1430 nM, respectively.
